Reference: US20020127541A1 (GOVERNING COUNCIL OF THE UNIVERSITY OF TORONTO, published 2002)

T1: endogenous calnexin (UniProt P27824 21-592)
T1 construct: Endogenous endoplasmic reticulum protein used as a control
T1 sequence (looked up): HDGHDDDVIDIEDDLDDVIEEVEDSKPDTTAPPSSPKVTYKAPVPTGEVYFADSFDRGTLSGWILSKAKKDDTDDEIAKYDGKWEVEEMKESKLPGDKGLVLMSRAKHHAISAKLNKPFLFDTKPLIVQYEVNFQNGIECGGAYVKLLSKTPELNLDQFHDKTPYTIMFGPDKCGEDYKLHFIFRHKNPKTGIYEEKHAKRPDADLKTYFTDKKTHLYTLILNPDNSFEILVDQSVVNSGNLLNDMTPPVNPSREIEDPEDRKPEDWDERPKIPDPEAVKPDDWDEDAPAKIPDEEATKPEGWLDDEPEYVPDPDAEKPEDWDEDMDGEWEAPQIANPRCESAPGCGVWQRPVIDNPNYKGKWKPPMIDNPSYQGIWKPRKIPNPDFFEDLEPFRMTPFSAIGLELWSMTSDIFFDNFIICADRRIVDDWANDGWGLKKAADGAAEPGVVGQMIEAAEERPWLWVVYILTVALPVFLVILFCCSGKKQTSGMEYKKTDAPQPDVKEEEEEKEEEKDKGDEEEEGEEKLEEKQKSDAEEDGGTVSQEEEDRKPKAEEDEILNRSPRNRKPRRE

B1: endogenous α-catenin (other)
chain: TAVHAGNINFKWDPKSLEIRTLAVERLLEPLVTQVTTLVNTNSKGPSNKKRGRSKKAHVLAASVEQATENFLEKGDKIAKESQFLKEELVAAVEDVRKQGDLMKAAAGEFADDPCSSVKRGNMVRAARALLSAVTRLLILADMADVYKLLVQLKVVEDGILKLRNAGNEQDLGIQYKALKPEVDKLNIMAAKRQQELKDVGHRDQMAAARGILQKNVPILYTASQACLQHPDVAAYKANRDLIYKQLQQAVTGISNAAQATASDDASQHQGGGGGELAYALNNFDKQIIVDPLSFSEERFRPSLEERLESIISGAALMADSSCTRDDRRERIVAECNAVRQALQDLLSEYMGNAGRKERSDALNSAIDKMTKKTRDLRRQLRKAVMDHVSDSFLETNVPLLVLIEAAKNGNEKEVKEYAQVFREHANKLIEVANLACSISNNEEGVKLVRMSASQLEALCPQVINAALALAAKPQSKLAQENMDLFKEQWEKQVRVLTDAVDDITSIDDFLAVSENHILEDVNKCVIALQEKDVDGLDRTAGAIRGRAARVIHVVTSEMDNYEPGVYTEKVLEATKLLSNTVMPRFTEQVEAAVEALSSDPAQPMDENEFIDASRLVYDGIRDIRKAVLMIRTPEELDDSDFETEDFDVRSRTSVQTEDDQLIAGQSARAIMAQLPQEQKAKIAEQVASFQEEKSKLDAEVSKWDDSGNDIIVLAKQMCMIMMEMTDFTRGKGPLKNTSDVISAAKKIAEAGSRMDKLGRTIADHCPDSACKQDLLAYLQRIALYCHQLNICSKVKAEVQNLGGELVVSGVDSAMSLIQAAKNLMNAVVQTVKASYVASTKYQKSQGMASLNLPAVSWKMKAPEKKPLVKREKQDETQTKIKRASQKKHVNPVQALSEFKAMDSI
notes: Endogenous protein of HEK293 cell lysates
B2: Myc-tagged hNPRAP528-1084 (other, human)
chain: ALKMPIIQDALAVLTNAVIIPHSGWENSPLQDDRKIQLHSSQVLRNATGCLRNVSSAGEEARRRMRECDGLTDALLYVIQSALGSSEIDSKTVENCVCILRNLSYRLAAETSQGQHMGTDELDGLLCGEANGKDAESSGCWGKKKKKKKSQDQWDGVGPLPDCAEPPKGIQMLWHPSIVKPYLTLLSECSNPDTLEGAAGALQNLAAGSWKWSVYIRAAVRKEKGLPILVELLRIDNDRVVCAVATALRNMALDVRNKELIGKYAMRDLVHRLPGGNNSNNTASKAMSDDTVTAVCCTLHEVITKNMENAKALRDAGGIEKLVGISKSKGDKHSPKVVKAASQVLNSMWQYRDLRSLYKKDGWSQYHFVASSSTIERDRQRPYSSSRTPSISPVRVSPNNRSASAPASPREMISLKERKTDYECTGSNATYHGGKGEHTSRKDAMTAQNTGISTLYRNSYGAPAEDIKHNQVSAQPVPQEPSRKDYETYQPFQNSTRNYDESFFEDQVHHRPPASEYTMHLGLKSTGNYVDFYSAARPYSELNYETSHYPASPDSWV
notes: Transiently expressed in HEK293 cells; also called myc-hNPRAP

How the values were obtained:
[1] = target: wild type PS1 (wtPS1) holoprotein (human, UniProt P49768 1-467); assay: co-immunoprecipitation with anti-PS1 loop or N-terminus antibodies, Western blot
Description: Co-immunoprecipitation and glycerol velocity gradient fractionation were performed as previously described in Yu et al., 1998, J.Biol.Chem. 273:16470-16475. Immunoprecipitations were performed on cell lysates 48 hours after transient transfections. Total proteins (2 mg/ml) were extracted from cultured cells or brain tissue using a lysis buffer (0.2% NP-40, 0.5% Triton X-100, 50 mM Tris-HCl [pH7.6], 150 mM NaCl, 2 mM EDTA, 2 mM PMSF, […] each of aprotinin, leupeptin, pepstatin). […] New York, Cold Spring Harbor Laboratory Press. Protein A Sepharose was subsequently added to the antibody-antigen complex and incubated for 2 hours at 4° C. The beads were washed four times with a washing buffer (0.2% NP-40, 50 mM Tris-HCl[pH7.6], 150 mM NaCl, 2 mM EDTA). IP products were resolved by SDS-PAGE and investigated for the co-immunoprecipitated partners with the corresponding antibody and detection with ECL (Amersham). […]
Western blots of anti-PS 1 immunoprecipitates from PS1 transfected HEK293 cells were examined for the presence of other arm proteins expressed endogenously in HEK293 cells. Endogenous β-catenin, but not endogenous α-catenin, γ-catenin, or calnexin were detected in Western blots of immunoprecipitation products from HEK293 cells stably transfected with PS1, using either antibodies to PS1 cytoplasmic loop or to the PS1 N-terminus.

endogenous calnexin = target: T1, endogenous calnexin; assay: co-immunoprecipitation

Binder	binding result [1]	binding result (endogenous calnexin)
B1	no binding	
B2		no binding
